Residue numbers refer to the chain shown, from its start. Like-named read-outs stand apart in the source and are kept apart here. One block for each binder: values may come before it.
Legend:
[1] = biological target: T1, human BSG2 (basigin isoform 2) on the cell surface (human, UniProt P35613 140-385); test: cell-based or functional assay
T1 sequence: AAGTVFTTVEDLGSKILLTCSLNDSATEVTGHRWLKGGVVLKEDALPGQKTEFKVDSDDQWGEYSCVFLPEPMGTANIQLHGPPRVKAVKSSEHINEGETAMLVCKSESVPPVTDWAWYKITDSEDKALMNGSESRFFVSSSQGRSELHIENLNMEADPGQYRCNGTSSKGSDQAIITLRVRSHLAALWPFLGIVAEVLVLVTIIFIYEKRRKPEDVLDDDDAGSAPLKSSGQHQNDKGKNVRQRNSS

[2] = biological target: T2, purified recombinant human BSG2 extracellular domain (human, UniProt P35613 22-325); test: SPR (Biacore), mAb captured by anti-mouse Fc, BSG2 ECD injected, 25 C
T2 construct: also called Human BSG2 ECD
T2 sequence: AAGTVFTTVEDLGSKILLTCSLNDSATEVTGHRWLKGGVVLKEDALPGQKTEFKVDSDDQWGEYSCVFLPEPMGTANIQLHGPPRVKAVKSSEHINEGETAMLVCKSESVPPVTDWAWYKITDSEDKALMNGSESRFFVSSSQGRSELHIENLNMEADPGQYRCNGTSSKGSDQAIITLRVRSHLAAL
Protocol: Binding of BSG2 antibodies to a purified recombinant BSG2 extracellular domain (ECD) was determined by surface plasmon resonance-based measurements with a Biacore® instrument (either a Biacore 2000, Biacore 3000, or Biacore T100; GE Healthcare, Piscataway, N.J., US). The assay format for mAb affinity analysis was Fc-based capture via immobilized anti-Fc IgG. A standard amine coupling protocol was employed to immobilize Fc-specific IgG via primary amines to the carboxy-methyl (CM) dextran surface of CMS sensorchips. For the study of mouse anti-human BSG2 mAbs, anti-mouse Fc was used as the immobilized capture reagent. An automated protocol, available on the Biacore 2000, was used to immobilize 8000-10000RU of capture reagent in all 4 flowcells of the sensorchip. Binding was recorded as a function of time and kinetic rate constants were calculated. In this assay, on-rates as fast as 10⁷M⁻¹ s⁻¹ and off-rates as slow as 10⁻⁵ s⁻¹ can be measured.
Briefly, the CM-dextran surfaces were activated by freshly prepared 1:1 […] 3-(N,N-dimethylamino)propyl-N-ethylcarbodiimide (EDC). Then the anti-Fc IgG capture reagent (20 μg/ml in 10 mM sodium acetate, pH 4.5) was applied to the surface followed by deactivation of the surface and blocking of the residual reactive sites with 1M ethanolamine (pH 8.5). The running buffer employed was PBS-PB [1×PBS (Sigma P3813), pH 7.4, 0.005% P20 surfactant, 0.1 mg/ml BSA (Sigma-A7906)] and the assay temperature was 25° C. All reagents were diluted into running buffer to the specified concentrations. Each experimental cycle consisted of the following steps: (1) anti-BSG2 mAbs at 0.5 to 1 μg/ml were captured in flowcells 2, 3 or 4 to a level of 100-120RU. All measurements were referenced against flowcell 1 which had no captured anti-BSG2 mAb; (2) human BSG2 ECD was injected through all 4 flowcells, 240 μl at 80 μl/min. After the antigen injection, dissociation was monitored for 600 seconds at 80 μl/min; and (3) the anti-Fc capture surface was regenerated with 10 mM glycine, pH 1.5.
The BSG2 antibody binding affinities were determined by the BIACORE technology as described in Example 1.2. Table 10 represents the antibody binding kinetics against human and cynomolgus monkey BSG2 extracellular domain (ECD).

[3] = biological target: T1, human BSG2 (basigin isoform 2) on the …; test: cell-based ECL (MSD) binding on whole cells expressing human BSG2
[4] = biological target: T1, human BSG2 (basigin isoform 2) on the …; test: flow cytometry (FACS) on HepG2 hepatocellular carcinoma cells (cell-surface BSG2)
Protocol: (§1) Stable cell lines overexpressing cell-surface BSG2 or human tumor cell lines were harvested from tissue culture flasks, washed three times and resuspended in phosphate buffered saline (PBS) containing 1% bovine serum albumin and 1 mM CaCl₂ (FACS buffer). 5×10⁵ cells were incubated with antibodies at various concentrations in FACS buffer for 60 minutes on ice. Cells were washed twice and the bound murine monoclonal antibody was detected with a goat Fab′2 anti-mouse IgM+IgG+IgA (H+L) R-phycoerythrin-conjugated antibody (Southern Biotechnology Associates, Inc., Birmingham, Ala., Catalog No. 1012-08) diluted 1:500. Following incubation on ice (4° C., 60 minutes), cells were washed three times and resuspended in FACS buffer. Fluorescence was measured using a Becton Dickinson FACSCalibur-HTS (Becton Dickinson, San Jose, Calif., US). Data were analyzed using Graphpad Prism software and EC₅₀ values were reported as the concentration of antibody to achieve 50% of maximal BSG2 antibodies binding to BSG2 expressing cells.

[5] = biological target: T1, human BSG2 (basigin isoform 2) on the …; test: receptor binding assay, Eu-labeled antibody on cells expressing human BSG2
Protocol: (§2) Cell lines expressing BSG2 were harvested and washed once in assay buffer (PBS, 0.1% BSA, 0.02% Na Azide, 10 mM EDTA) and resuspended to 5×10⁶ cells per mL. Serial 1:2 dilutions of ⁺³Eu-labeled anti-BSG2 antibody stock in assay buffer were made for final concentrations ranging from 1.6×10⁻⁸-7.7×10⁻¹² M, and a 4 mg/mL solution of unlabeled anti-BSG2 antibody was also prepared. To 96 well round bottom plates, 25 μl of ⁺³Eu-labeled antibody dilutions were added to 25 μl buffer (total counts), or 25 μl of unlabeled antibody were added to 25 μl buffer (background counts). 50 μl of cells at 2.5×10⁵ cells per well were then added to all samples, mixed gently, and incubated on ice for 1 hour. Cell bound antibody was then separated from unbound antibody by transferring 20 μL of the reaction mixture to Acrowell 96 well filter plates (Pall PN 5020), centrifuged for 5 min (2200 rpm), washed 3× with 150 μL cold assay buffer, and centrifuged for 5 min. Signal was determined by incubating samples with 150 μL/well of enhancement buffer and read using Envision. The specific counts were determined by subtracting the background counts (cells+labeled antibody+excess cold antibody) from the corresponding total counts (cells+labeled antibody) for each antibody concentration. The labeled antibody concentration versus total counts was analyzed using Graphpad Prism 4 to calculate Kd and Bmax values.
BSG2 antibody binding activities against whole cells expressing human or cynomolgus monkey BSG2 were assessed by ECL using MSD technology (described in Example 1.3) and the receptor binding assay (described in Example 1.4) and are shown in Table 11.

[6] = biological target: T1, human BSG2 (basigin isoform 2) on the …; test: flow cytometry (FACS) on BAF3 cells expressing human BSG2
Protocol: as §1

[7] = biological target: T1, human BSG2 (basigin isoform 2) on the …; test: cell-based ECL (MSD) binding on cells expressing human BSG2
Protocol: Cells were plated at 25,000 cells/well in 25 μl PBS using 96 well MSD high binding plates (MSD, catalogue no. L11XB-3), and incubated at 37° C. for 1 hour. 25 μl/well of blocking solution (30% serum in PBS) was added to the plates for 30 minutes at room temperature with mild agitation. Plates were then incubated with 25 μl/well of BSG2 antibodies (10 μg/ml) diluted in assay buffer (10% serum in PBS) for 1 hour at room temperature with mild agitation, and then washed 3× with PBS. Goat anti-mouse or anti-human IgG sulfotag was added at 1 μg/ml for 1 hour with mild agitation, and plates were washed 3× with PBS. After the final wash, plates were incubated with 2×MSD surfactant-free read buffer (catalogue no. R92TD-2) and the signal was detected on a MSD SECTOR Imager 6000. Data were analyzed using Graphpad Prism software and EC₅₀ values were reported.
Select humanized variants were also tested for their functionality using ADCC and cell viability assays (described in Examples 1.6 and 1.7).

[8] = biological target: T1, human BSG2 (basigin isoform 2) on the …; test: cell-based or functional assay; remark: listed apart in the source
[9] = biological target: T1, human BSG2 (basigin isoform 2) on the …; test: receptor binding assay, Eu-labeled antibody on cells expressing human BSG2; remark: listed apart in the source
Protocol: as §2

B2: humanized 6A11-3A3 antibody h3A3-8 (VH.1/VL.1a) (antibody, V domains shown)
VH: EVQLVESGGGLVQPGGSLRLSCAASGFTFSNFWMDWVRQAPGKGLEWVGGIRLKSYNYATHYAESVKGRFTISRDDSKNTAYLQMNSLRAEDTAVYYCTRWDGAYWGQGTLVTVSS
VL: DIQMTQSPSSLSASVGDRVTITCKASQDVSTDVAWYQQKPGKSPKLLIYSASYRYTGVPSRFSGSGSGTDFTLTISSLQPEDIATYYCQQHYSTPFTFGQGTKLEIK
- EC50 [7]: 6.9 nM

B7: humanized 6A11-3A3 antibody h3A3-5 (VH.1/VL.1) (antibody, V domains shown)
VH: B2 VH
VL: B2 VL with S43A
- EC50 [7]: > 100 nM

B8: mouse anti-human BSG2 antibody 1F4-2C1 with mouse IgG2a isotype (antibody, V domains shown)
VH: EVKLEESGGGLVQPGGSMKLSCVASGFTFSNFWMDWVRQSPEKGLEWVAEIRLKSTNYATHYAESVKGRFTISRDDSKSSVYLQMNNLRAEDTGIYYCTATSTGYWGQGTTLTVSS
VL: SIVMTQSPKILLVSAGDRVTITCKASQSVSNDVAWYQQKPGQSPKLLIYYASNRYTGVPDRFTGSGYGTDFTFTISTVQAEDLAVYFCQQDYSSPYTFGGGTKLEIK
- CDC assay (% killing at 10 µg/ml Ab), MiaPaCa-2 pancreatic cancer cells [1]: 87 % killing

B9: chimeric antibody 6A11-3A3 (human IgG1 constant regions) (antibody, V domains shown)
VH: EVKLEESGGGLVQPGGSMKLSCVASGFTFSNFWMDWVRQSPEKGLEWIAGIRLKSYNYATHYAESVKGRFTISRDDSKSSVYLQMNNLRAEDTGIYYCTDWDGAYWGQGTLVTVSA
VL: DIVMTQSHKFMSTSVGDRVSITCKASQDVSTDVAWYQQKPGQSPKLLIYSASYRYTGVPDRFTGSGSGTDFTFTISSVQAEDLAVYYCQQHYSTPFTFGSGTKLEIK
- ADCC assay (EC50 ng/ml of % specific lysis), HepG2 hepatocellular cancer cells [1]: 7.3 ng/mL
- ADCC assay (EC50 ng/ml of % specific lysis), HepG2 hepatocellular [8]: 12.5 ng/mL
- Cross-linking assay (% viability, Cmax: 125 ng/ml), MiaPaCa pancreatic cells [8]: 55.5 % viability

More lines, main results first:

- Kd [2]: 47 nM
- koff [2]: 0.019 s⁻¹
- kon [2]: 410000 M⁻¹ s⁻¹
- EC50 [3]: 0.3 nM
- EC50 [4]: 0.17 nM
- Kd [5]: 0.15 nM
- EC50 [6]: 0.14 nM
B1: mouse anti-human BSG2 monoclonal antibody SZ66-2D2-2A1 (antibody, mouse IgG2a, kappa, V domains shown)
VH: QVQLQQPGAEIVRPGASVKLSCKASGYTFTDYWMNWVKLRPGQGLEWIGIIDPSDSYASYNQKFKGKATLTVDESSSTAYMQLSSLTSEDSAVYYCARKSYYGGNYYYAMDYWGQGTSVTVSS
VL: EIVLTQSPALMAASPGEKVTITCSVSSSINSINLHWYRQKSETSPKPWIYGTSNLASGVPVRFSGSGSGTSYSLTISSMEAEDAATYYCQQWSSYPLTFGAGTKLELKR
notes: Hybridoma antibody, mouse IgG2a/kappa
- CDC assay (% killing at 10 µg/ml Ab), MiaPaCa-2 pancreatic cancer cells [1]: 84 % killing

- EC50 [7]: 1.35 nM
B3: humanized 6A11-3A3 antibody h3A3-9 (VH.1a/VL.1a) (antibody, V domains shown)
VH: B2 VH with V48I, G49A, N79S, A81V, R100D
VL: B2 VL

- EC50 [7]: > 100 nM
B4: humanized 6A11-3A3 antibody h3A3-11 (VH.1/VL.1b) (antibody, V domains shown)
VH: B2 VH
VL: B2 VL with Q3V

- EC50 [7]: 0.96 nM
- ADCC assay (EC50 ng/ml of % specific lysis), HepG2 hepatocellular [8]: 9.3 ng/mL
- Kd [9]: 2.3 nM
B5: humanized 6A11-3A3 antibody h3A3-12 (VH.1a/VL.1b) (antibody, IgG1, V domains shown)
VH: B2 VH with V48I, G49A, N79S, A81V, R100D
VL: B2 VL with Q3V
notes: IgG1
- Cross-linking assay (% viability, Cmax: 125 ng/ml), MiaPaCa pancreatic cells [8]: 48.8 % viability

- EC50 [7]: 2.05 nM
- ADCC assay (EC50 ng/ml of % specific lysis), HepG2 hepatocellular [8]: 16.4 ng/mL
- Kd [9]: 5.2 nM
B6: humanized 6A11-3A3 antibody h3A3-6 (VH.1a/VL.1) (antibody, IgG1, V domains shown)
VH: B2 VH with V48I, G49A, N79S, A81V, R100D
VL: B2 VL with S43A
notes: IgG1
- Cross-linking assay (% viability, Cmax: 125 ng/ml), MiaPaCa pancreatic cells [8]: 47.9 % viability

From patent US20110223176A1 (AbbVie / Abbott, published 2011)
